Source: the supplement of paper PMC9112550, “Optimization of the antimicrobial peptide Bac7 by deep mutational scanning” (BMC Biology, 2022)

These sequences were tested on Escherichia coli TOP10 (assay: shrunken log2 fold change of peptide-encoding DNA abundance (4.5 h post-induction vs induction); higher = less antimicrobial activity (less host growth inhibition)). Conditions: time post-induction: 4.5 h; library: site-saturation at positions 5, 18, 19, 20.
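Also: peptides expressed intracellularly from a pBAD plasmid library in pooled LB shake-flask culture, induced with 0.3% L-arabinose, DNA abundance read by NGS, three biological replicates, DESeq2 with apeglm shrinkage.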

Question: For RRIRDRPPRLPRPRPRPFKHPRP, which “shrunken log2 fold change” value is on record?
Answer: -0.264

Question: With RRIRDRPPRLPRPRPRPFLAPRP as the sequence, how does the “shrunken log2 fold change” value read?
Answer: 0.341

Question: RRIRDRPPRLPRPRPRPFMAPRP was tested. Which “shrunken log2 fold change” value did it give?
Answer: 0.035

Question: How did the “shrunken log2 fold change” value turn out when RRIRDRPPRLPRPRPRPFMYPRP was run?
Answer: -0.212

Question: For RRIRDRPPRLPRPRPRPFNVPRP, which “shrunken log2 fold change” value is on record?
Answer: -0.00548

Question: Which “shrunken log2 fold change” value does the source give for RRIRDRPPRLPRPRPRPFRPPRP here?
Answer: 0.0778

Question: For RRIRDRPPRLPRPRPRPFRRPRP, which “shrunken log2 fold change” value is on record?
Answer: 0.0456

Question: RRIRDRPPRLPRPRPRPFRSPRP was tested. Which “shrunken log2 fold change” value did it give?
Answer: -0.0401

Question: For RRIRDRPPRLPRPRPRPFSIPRP, which “shrunken log2 fold change” value is on record?
Answer: 0.0044

Question: RRIRDRPPRLPRPRPRPFSSPRP was tested. Which “shrunken log2 fold change” value did it give?
Answer: -0.0177

Question: Which “shrunken log2 fold change” value does the source give for RRIRDRPPRLPRPRPRPFTGPRP here?
Answer: -0.267

Question: For RRIRDRPPRLPRPRPRPFTIPRP, which “shrunken log2 fold change” value is on record?
Answer: -0.0247

Question: How did the “shrunken log2 fold change” value turn out when RRIRDRPPRLPRPRPRPFTNPRP was run?
Answer: -0.0104

Question: Which “shrunken log2 fold change” value does the source give for RRIRDRPPRLPRPRPRPFTWPRP here?
Answer: -0.12

Question: For RRIRDRPPRLPRPRPRPFVDPRP, which “shrunken log2 fold change” value is on record?
Answer: 0.063

Question: RRIRDRPPRLPRPRPRPFVKPRP was tested. Which “shrunken log2 fold change” value did it give?
Answer: -0.1

Question: Which “shrunken log2 fold change” value does the source give for RRIRDRPPRLPRPRPRPFVVPRP here?
Answer: -0.266

Question: Which “shrunken log2 fold change” value does the source give for RRIRDRPPRLPRPRPRPFWQPRP here?
Answer: 0.0546

Question: How did the “shrunken log2 fold change” value turn out when RRIRDRPPRLPRPRPRPFYEPRP was run?
Answer: -0.262

Question: Which “shrunken log2 fold change” value does the source give for RRIRDRPPRLPRPRPRPGAEPRP here?
Answer: 1.08

Question: RRIRDRPPRLPRPRPRPGAGPRP was tested. Which “shrunken log2 fold change” value did it give?
Answer: 0.914

Question: With RRIRDRPPRLPRPRPRPGAQPRP as the sequence, how does the “shrunken log2 fold change” value read?
Answer: 1.02

Question: With RRIRDRPPRLPRPRPRPGCEPRP as the sequence, how does the “shrunken log2 fold change” value read?
Answer: 0.852

Question: With RRIRDRPPRLPRPRPRPGDEPRP as the sequence, how does the “shrunken log2 fold change” value read?
Answer: 0.0587

Question: With RRIRDRPPRLPRPRPRPGDWPRP as the sequence, how does the “shrunken log2 fold change” value read?
Answer: 0.92

Question: How did the “shrunken log2 fold change” value turn out when RRIRDRPPRLPRPRPRPGEPPRP was run?
Answer: 0.613

Question: How did the “shrunken log2 fold change” value turn out when RRIRDRPPRLPRPRPRPGFTPRP was run?
Answer: 0.125

Question: With RRIRDRPPRLPRPRPRPGGVPRP as the sequence, how does the “shrunken log2 fold change” value read?
Answer: 0.434

Question: For RRIRDRPPRLPRPRPRPGITPRP, which “shrunken log2 fold change” value is on record?
Answer: 0.297

Question: RRIRDRPPRLPRPRPRPGIYPRP was tested. Which “shrunken log2 fold change” value did it give?
Answer: -0.15

Question: RRIRDRPPRLPRPRPRPGKWPRP was tested. Which “shrunken log2 fold change” value did it give?
Answer: -0.00965

Question: Which “shrunken log2 fold change” value does the source give for RRIRDRPPRLPRPRPRPGLFPRP here?
Answer: 0.949

Question: Which “shrunken log2 fold change” value does the source give for RRIRDRPPRLPRPRPRPGLKPRP here?
Answer: -0.0696

Question: For RRIRDRPPRLPRPRPRPGMRPRP, which “shrunken log2 fold change” value is on record?
Answer: 1.02

Question: With RRIRDRPPRLPRPRPRPGMTPRP as the sequence, how does the “shrunken log2 fold change” value read?
Answer: 0.0654

Question: For RRIRDRPPRLPRPRPRPGMVPRP, which “shrunken log2 fold change” value is on record?
Answer: 0.548

Question: For RRIRDRPPRLPRPRPRPGPRPRP, which “shrunken log2 fold change” value is on record?
Answer: 0.787

Question: RRIRDRPPRLPRPRPRPGRPPRP was tested. Which “shrunken log2 fold change” value did it give?
Answer: 0.136

Question: Which “shrunken log2 fold change” value does the source give for RRIRDRPPRLPRPRPRPGRTPRP here?
Answer: -0.0421

Question: Which “shrunken log2 fold change” value does the source give for RRIRDRPPRLPRPRPRPGTDPRP here?
Answer: 0.341

Question: RRIRDRPPRLPRPRPRPGTSPRP was tested. Which “shrunken log2 fold change” value did it give?
Answer: -0.0025

Question: With RRIRDRPPRLPRPRPRPGVLPRP as the sequence, how does the “shrunken log2 fold change” value read?
Answer: -0.0992

Question: With RRIRDRPPRLPRPRPRPGYIPRP as the sequence, how does the “shrunken log2 fold change” value read?
Answer: -0.304

Question: How did the “shrunken log2 fold change” value turn out when RRIRDRPPRLPRPRPRPGYRPRP was run?
Answer: 0.000964

Question: For RRIRDRPPRLPRPRPRPGYVPRP, which “shrunken log2 fold change” value is on record?
Answer: -0.153

Question: For RRIRDRPPRLPRPRPRPHAHPRP, which “shrunken log2 fold change” value is on record?
Answer: 0.0605

Question: With RRIRDRPPRLPRPRPRPHASPRP as the sequence, how does the “shrunken log2 fold change” value read?
Answer: 0.178

Question: RRIRDRPPRLPRPRPRPHCQPRP was tested. Which “shrunken log2 fold change” value did it give?
Answer: -0.146

Question: With RRIRDRPPRLPRPRPRPHCYPRP as the sequence, how does the “shrunken log2 fold change” value read?
Answer: -0.106

Question: For RRIRDRPPRLPRPRPRPHDDPRP, which “shrunken log2 fold change” value is on record?
Answer: 0.014

Question: Which “shrunken log2 fold change” value does the source give for RRIRDRPPRLPRPRPRPHDFPRP here?
Answer: -0.00663

Question: For RRIRDRPPRLPRPRPRPHDHPRP, which “shrunken log2 fold change” value is on record?
Answer: 0.00042

Question: For RRIRDRPPRLPRPRPRPHDYPRP, which “shrunken log2 fold change” value is on record?
Answer: -0.0787

Question: For RRIRDRPPRLPRPRPRPHEFPRP, which “shrunken log2 fold change” value is on record?
Answer: 0.00812

Question: For RRIRDRPPRLPRPRPRPHEQPRP, which “shrunken log2 fold change” value is on record?
Answer: -0.0062

Question: Which “shrunken log2 fold change” value does the source give for RRIRDRPPRLPRPRPRPHGVPRP here?
Answer: -0.00965

Question: How did the “shrunken log2 fold change” value turn out when RRIRDRPPRLPRPRPRPHHQPRP was run?
Answer: -0.0302

Question: With RRIRDRPPRLPRPRPRPHIAPRP as the sequence, how does the “shrunken log2 fold change” value read?
Answer: 0.0931

Question: RRIRDRPPRLPRPRPRPHICPRP was tested. Which “shrunken log2 fold change” value did it give?
Answer: -0.205

Question: How did the “shrunken log2 fold change” value turn out when RRIRDRPPRLPRPRPRPHIDPRP was run?
Answer: -0.0782

Question: Which “shrunken log2 fold change” value does the source give for RRIRDRPPRLPRPRPRPHKCPRP here?
Answer: -0.372

Question: With RRIRDRPPRLPRPRPRPHLVPRP as the sequence, how does the “shrunken log2 fold change” value read?
Answer: -0.0562

Question: With RRIRDRPPRLPRPRPRPHMKPRP as the sequence, how does the “shrunken log2 fold change” value read?
Answer: -0.467

Question: RRIRDRPPRLPRPRPRPHMYPRP was tested. Which “shrunken log2 fold change” value did it give?
Answer: -0.102

Question: How did the “shrunken log2 fold change” value turn out when RRIRDRPPRLPRPRPRPHPWPRP was run?
Answer: 0.114

Question: With RRIRDRPPRLPRPRPRPHQFPRP as the sequence, how does the “shrunken log2 fold change” value read?
Answer: -0.282

Question: With RRIRDRPPRLPRPRPRPHVEPRP as the sequence, how does the “shrunken log2 fold change” value read?
Answer: -0.109

Question: Which “shrunken log2 fold change” value does the source give for RRIRDRPPRLPRPRPRPHVHPRP here?
Answer: -0.134

Question: With RRIRDRPPRLPRPRPRPHWMPRP as the sequence, how does the “shrunken log2 fold change” value read?
Answer: 0.236

Question: RRIRDRPPRLPRPRPRPHYAPRP was tested. Which “shrunken log2 fold change” value did it give?
Answer: -0.00151

Question: RRIRDRPPRLPRPRPRPHYKPRP was tested. Which “shrunken log2 fold change” value did it give?
Answer: -0.297

Question: How did the “shrunken log2 fold change” value turn out when RRIRDRPPRLPRPRPRPHYQPRP was run?
Answer: 0.0231

Question: How did the “shrunken log2 fold change” value turn out when RRIRDRPPRLPRPRPRPICSPRP was run?
Answer: 0.0206

Question: For RRIRDRPPRLPRPRPRPIDDPRP, which “shrunken log2 fold change” value is on record?
Answer: 0.224

Question: Which “shrunken log2 fold change” value does the source give for RRIRDRPPRLPRPRPRPIDWPRP here?
Answer: 0.129
